The values that follow come from patent US20240261403A1 (published 2024).

This test addresses T1, EGFR L858R peptide on HLA-A*33:03 (human).
T1 peptide: HVKITDFGR
As to the kind of experiment: multimer staining.

B1: TCR (i) with CDR3 alpha SEQ ID NO: 1 and CDR3 beta SEQ ID NO: 13 (Table 2, rank 1) (TCR, V domains shown)
Valpha: KQEVTQIPAALSVPEGENLVLNCSFTDSAIYNLQWFRQDPGKGLTSLLLIQSSQREQTSGRLNASLDKSSGRSTLYIAASQPGDSATYLCAFIGHGGSQGNLIFGRGTSLIVHP
Vbeta: NAGVTQTPKFQVLKTGQSMTLQCAQDMNHEYMSWYRQDPGMGLRLIHYSVGAGITDQGEVPNGYNVSRSTTEDFPLRLLSAAPSQTSVYFCASSMQGAMSEQFFGPGTRLTVL
With B1, the binding result is given as “recognises”.

B2: TCR (ii) with CDR3 alpha SEQ ID NO: 2 and CDR3 beta SEQ ID NO: 14 (Table 2, rank 2) (TCR, V domains shown)
Valpha: KQEVTQIPAALSVPEGENLVLNCSFTDSAIYNLQWFRQDPGKGLTSLLLIQSSQREQTSGRLNASLDKSSGRSTLYIAASQPGDSATYLCAATGTYKYIFGRGTSLIVHP
Vbeta: NAGVTQTPKFQVLKTGQSMTLQCAQDMNHEYMSWYRQDPGMGLRLIHYSVGAGITDQGEVPNGYNVSRSTTEDFPLRLLSAAPSQTSVYFCASSPEFARALDNQPQHFGPGTRLTVL
Take B2: the binding result is “recognises”.
